Assay results reported in patent US20240190966A1 (published 2024).

Target: T1, human LY6G6D-Fc (human, UniProt O95868 20-104)
T1 construct: also called huLY6G6D; hu Ly6G6D; not shown: linker and Fc
T1 sequence: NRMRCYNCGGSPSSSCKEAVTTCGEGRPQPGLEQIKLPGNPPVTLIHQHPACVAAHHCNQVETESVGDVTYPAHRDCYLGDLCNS
Test: BIAcore SPR; chimeric Fab; Ly6G6D-Fc captured on Protein A chip, 37 C (FIG. 34C)
Experimental: FIG. 34C is a set of graphs showing binding of Fab variants of rabbit 20A12, rabbit 20A12 comprising […] and C50A (IA) mutations, and the polished humanized 20A12 having a QNT amino acid substitution mutations at the glycosylation site of FIG. 34B to LY6G6D, as measured using a BIAcore assay. Ly6G6D-Fc was captured on a Protein A chip, and the Fab was flowed through at 37° C..

B1: rb20A12.IA (C35I-C50A) chimeric Fab (Fab, V domains shown)
VH: QQQLEESGGDLVKPGASLTLTCTASGFDFVNNAMIWVRQAPGKGLEWIAALSFADNTAYYATWASGRFTISKISSTTVTLRMTSLTGADTATYFCMRGDLWGPGTLVTVSS
VL: DIVMTQTPSSVSAAVGGTVTINCQASESITRYLNWYQQKPGQPPKLLIYDASKLPSGVPSRFKGSGSGTQFTLTTSDLECADAATYYCQSTSFRGRSYNNTFGGGTEVVVK
modifications: CDR-L3 NNT site is N-glycosylated.
notes: also called rabbit 20A12 comprising C35I and C50A (IA) mutations
- Kd: 0.86 nM
